The target of test [1] is SARS-CoV RBD homotrimer (RBD appended onto a cystine-stabilized, hyperglycosylated GCN4 trimerization tag) (SARS-CoV) (UniProt P59594). Nature of the test: SDS-PAGE under non-reducing conditions.
For test [2], the target named is WIV1-CoV RBD homotrimer (RBD appended onto a cystine-stabilized, hyperglycosylated GCN4 trimerization tag) (WIV1-CoV). Nature of the test: SDS-PAGE under non-reducing conditions.

The source of these data is article doi:10.1101/2020.12.07.415216.

“SARS-CoV RBD homotrimer (RBD appended onto a cystine-stabilized, hyperglycosylated GCN4 trimerization tag) (from UniProt P59594)” registered a stoichiometry N in test [1] of 3. Regarding “WIV1-CoV RBD homotrimer (RBD appended onto a cystine-stabilized, hyperglycosylated GCN4 trimerization tag)”, the stoichiometry N in test [2] was found to be 3.

As usually defined, the stoichiometry N is a count of units in the complex or per binding partner.
